{"source": "paper PMC7672443", "about": "“Structural basis of the XPB helicase–Bax1 nuclease complex interacting with the repair bubble DNA” (Nucleic Acids Research, 2020)", "binders": {"B1": {"name": "bubble-6 DNA (crystal) (dsDNA)", "DNA 1": "TTGACTCAACATCCTTTGCTACAA", "DNA 2": "ATTGTAGGTTTCCATGTTGAGTCA"}, "B2": {"name": "forked DNA (dsDNA)", "DNA 1": "TAGTCACAGCTGATTGCGCTCTGCTCCATAGT", "DNA 2": "TGATACTTCGAGAGCGCAATCAGCTGTGACTA"}, "B3": {"name": "bubble-5 DNA (dsDNA)", "DNA 1": "B2 DNA 1 with G16T, C17T, G18T", "DNA 2": "ACTATGGAGCAGAGTTTTTTCAGCTGTGACTA"}}, "key": {"StXPB;StBax1ΔC [1]": {"target": "T1, StXPB;StBax1ΔC (Sulfurisphaera tokodaii;Sulfurisphaera …, UniProt Q970I2;Q970I1 2-439;2-373, |)", "T1 sequence 1": "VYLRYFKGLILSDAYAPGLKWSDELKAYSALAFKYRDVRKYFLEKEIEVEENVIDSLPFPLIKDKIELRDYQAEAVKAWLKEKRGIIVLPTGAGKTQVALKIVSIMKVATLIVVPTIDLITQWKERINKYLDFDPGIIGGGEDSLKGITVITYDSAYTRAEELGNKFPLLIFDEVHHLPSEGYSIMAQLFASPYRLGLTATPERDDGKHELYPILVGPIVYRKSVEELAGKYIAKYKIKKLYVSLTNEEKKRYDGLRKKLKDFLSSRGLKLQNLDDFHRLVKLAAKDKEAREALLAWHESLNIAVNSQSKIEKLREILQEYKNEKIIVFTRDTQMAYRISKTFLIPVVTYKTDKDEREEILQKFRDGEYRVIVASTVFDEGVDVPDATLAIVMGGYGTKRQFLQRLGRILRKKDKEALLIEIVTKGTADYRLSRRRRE", "T1 sequence 2": "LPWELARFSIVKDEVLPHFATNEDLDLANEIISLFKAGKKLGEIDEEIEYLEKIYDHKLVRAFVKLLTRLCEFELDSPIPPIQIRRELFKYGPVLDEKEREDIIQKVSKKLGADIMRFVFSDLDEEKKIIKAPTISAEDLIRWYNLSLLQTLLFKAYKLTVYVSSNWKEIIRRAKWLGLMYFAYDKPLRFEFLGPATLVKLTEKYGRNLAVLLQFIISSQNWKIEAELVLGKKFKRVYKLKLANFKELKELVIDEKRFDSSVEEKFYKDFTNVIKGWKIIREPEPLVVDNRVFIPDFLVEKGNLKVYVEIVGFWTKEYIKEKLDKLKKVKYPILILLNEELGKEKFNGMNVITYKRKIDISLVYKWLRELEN", "assay": "crystal structure 3.55 Å; 10 mM MgCl2, MES pH 5.3, MPD; ATP-free; EMSA: 25 mM Tris-Cl pH 7.5, 100 mM NaCl, 5% glycerol, 1 mM DTT, room temperature 40 min; 0.8 uM forked DNA or 0.3 uM bubble DNA; 4% TBE native gel, ethidium bromide", "conditions": "protein: recombinant;recombinant; tags: N-terminal His8 (PreScission; removed);none stated (pET15b; copurified with His8-XPB); copies: 1;1; 24 bp with 6 nt unpaired region; 6 bp short arm unwound in crystal"}, "StXPB;StBax1ΔC [2]": {"target": "T1, StXPB;StBax1ΔC", "assay": "EMSA; EMSA: 25 mM Tris-Cl pH 7.5, 100 mM NaCl, 5% glycerol, 1 mM DTT, room temperature 40 min; 0.8 uM forked DNA or 0.3 uM bubble DNA; 4% TBE native gel, ethidium bromide", "conditions": "protein: recombinant;recombinant; tags: N-terminal His8 (PreScission; removed);none stated (pET15b; copurified with His8-XPB); copies: 1;1; fork: 22 bp duplex, 10 nt arms"}, "StXPB;StBax1": {"target": "T2, StXPB;StBax1 (Sulfurisphaera tokodaii;Sulfurisphaera …, UniProt Q970I2;Q970I1 2-439;1-481, |)", "T2 sequence 1": "T1 sequence 1", "T2 sequence 2": "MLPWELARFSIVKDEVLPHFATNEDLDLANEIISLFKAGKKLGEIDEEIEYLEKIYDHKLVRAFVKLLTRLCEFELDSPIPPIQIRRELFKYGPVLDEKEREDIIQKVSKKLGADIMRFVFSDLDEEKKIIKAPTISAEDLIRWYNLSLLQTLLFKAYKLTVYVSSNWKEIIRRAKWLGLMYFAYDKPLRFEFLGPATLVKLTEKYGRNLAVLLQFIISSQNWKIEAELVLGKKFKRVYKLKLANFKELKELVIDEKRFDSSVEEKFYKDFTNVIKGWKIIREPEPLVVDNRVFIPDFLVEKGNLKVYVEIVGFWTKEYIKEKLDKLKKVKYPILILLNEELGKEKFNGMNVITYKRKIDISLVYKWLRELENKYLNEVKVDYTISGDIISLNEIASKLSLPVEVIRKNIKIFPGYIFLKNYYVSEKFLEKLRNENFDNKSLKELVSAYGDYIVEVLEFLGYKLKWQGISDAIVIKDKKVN", "assay": "EMSA; EMSA: 25 mM Tris-Cl pH 7.5, 100 mM NaCl, 5% glycerol, 1 mM DTT, room temperature 40 min; 0.8 uM forked DNA or 0.3 uM bubble DNA; 4% TBE native gel, ethidium bromide", "conditions": "protein: recombinant;recombinant; tags: N-terminal His8 (PreScission; removed);; copies: 1;1; fork: 22 bp duplex, 10 nt arms"}, "[3]": {"target": "human XPB;human p52;human p8;human XPA (human;human;human;human, UniProt P19447;Q92759;Q6ZYL4;P23025 1-782;1-462;1-71;1-273, |||)", "sequence (P19447 whole entry, chain 1 of 4)": "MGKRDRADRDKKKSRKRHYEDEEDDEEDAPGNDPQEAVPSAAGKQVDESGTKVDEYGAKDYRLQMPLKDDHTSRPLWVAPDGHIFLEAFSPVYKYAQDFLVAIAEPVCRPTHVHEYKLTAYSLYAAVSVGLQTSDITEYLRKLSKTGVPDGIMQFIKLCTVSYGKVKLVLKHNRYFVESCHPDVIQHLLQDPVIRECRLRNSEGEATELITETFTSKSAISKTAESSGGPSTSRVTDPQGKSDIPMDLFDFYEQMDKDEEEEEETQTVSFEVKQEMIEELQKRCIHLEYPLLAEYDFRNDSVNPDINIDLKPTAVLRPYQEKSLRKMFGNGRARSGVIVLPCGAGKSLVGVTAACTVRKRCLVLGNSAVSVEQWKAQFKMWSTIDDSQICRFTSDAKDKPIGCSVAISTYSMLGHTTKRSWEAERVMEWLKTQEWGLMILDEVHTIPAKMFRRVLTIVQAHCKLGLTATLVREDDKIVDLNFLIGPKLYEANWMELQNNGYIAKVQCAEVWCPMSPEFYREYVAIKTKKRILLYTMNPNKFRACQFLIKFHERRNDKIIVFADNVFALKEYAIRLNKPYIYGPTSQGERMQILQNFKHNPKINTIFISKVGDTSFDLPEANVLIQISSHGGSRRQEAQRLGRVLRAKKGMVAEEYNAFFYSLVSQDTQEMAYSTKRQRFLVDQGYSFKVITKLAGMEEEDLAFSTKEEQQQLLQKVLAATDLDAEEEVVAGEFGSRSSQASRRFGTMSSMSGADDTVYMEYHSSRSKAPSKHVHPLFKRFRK", "sequence (Q92759 whole entry, chain 2 of 4)": "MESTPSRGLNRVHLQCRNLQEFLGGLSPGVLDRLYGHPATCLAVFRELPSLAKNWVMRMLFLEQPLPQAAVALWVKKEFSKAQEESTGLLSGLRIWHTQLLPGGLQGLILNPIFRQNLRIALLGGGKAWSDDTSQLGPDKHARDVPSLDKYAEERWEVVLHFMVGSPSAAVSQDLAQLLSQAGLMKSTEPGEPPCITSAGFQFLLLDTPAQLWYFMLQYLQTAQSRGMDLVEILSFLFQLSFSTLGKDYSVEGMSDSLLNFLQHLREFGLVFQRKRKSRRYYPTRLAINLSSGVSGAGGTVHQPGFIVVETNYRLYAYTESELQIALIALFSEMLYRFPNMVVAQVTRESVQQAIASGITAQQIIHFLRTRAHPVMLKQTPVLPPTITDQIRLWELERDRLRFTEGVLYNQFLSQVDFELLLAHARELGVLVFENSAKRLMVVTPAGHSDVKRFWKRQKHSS", "sequence (Q6ZYL4 whole entry, chain 3 of 4)": "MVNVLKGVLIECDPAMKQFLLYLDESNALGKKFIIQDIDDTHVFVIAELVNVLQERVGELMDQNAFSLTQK", "sequence (P23025 whole entry, chain 4 of 4)": "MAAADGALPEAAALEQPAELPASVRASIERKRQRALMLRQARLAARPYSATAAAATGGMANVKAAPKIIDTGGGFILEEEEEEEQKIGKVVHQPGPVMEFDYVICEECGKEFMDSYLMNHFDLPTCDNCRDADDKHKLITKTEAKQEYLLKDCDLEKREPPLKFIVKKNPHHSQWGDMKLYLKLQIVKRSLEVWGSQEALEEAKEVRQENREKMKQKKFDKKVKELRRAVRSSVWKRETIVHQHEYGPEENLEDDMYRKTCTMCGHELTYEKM", "assay": "EMSA; stable complex; EMSA: 25 mM Tris-Cl pH 7.5, 100 mM NaCl, 5% glycerol, 1 mM DTT, room temperature 40 min; 0.8 uM forked DNA or 0.3 uM bubble DNA; 4% TBE native gel, ethidium bromide", "conditions": "protein: recombinant;recombinant;recombinant;recombinant; tags: N-terminal His6 (PreScission; removed);;;N-terminal His6-SUMO (removed); copies: 1;1;1;1; fork: 22 bp duplex, 10 nt arms"}, "StXPB F278A": {"target": "T3, StXPB F278A (Sulfurisphaera tokodaii, UniProt Q970I2 2-439, F278A)", "T3 sequence": "T1 sequence 1 with F277A", "assay": "EMSA; no noticeable effect versus WT; EMSA: 25 mM Tris-Cl pH 7.5, 100 mM NaCl, 5% glycerol, 1 mM DTT, room temperature 40 min; 0.8 uM forked DNA or 0.3 uM bubble DNA; 4% TBE native gel, ethidium bromide", "conditions": "protein: recombinant; tags: N-terminal His8 (removed); 32 nt strands, blunt, internal 5 nt T:T mismatch bubble"}}, "note": "Changes are numbered by the printed parent chain."}
{"binder": "B1", "values": [{"measurement": "binding result", "setting": "StXPB;StBax1ΔC [1]", "value": "binds"}]}
{"binder": "B2", "values": [{"measurement": "binding result", "setting": "StXPB;StBax1ΔC [2]", "value": "binds"}, {"measurement": "binding result", "setting": "StXPB;StBax1", "value": "binds"}, {"measurement": "binding result", "setting": "[3]", "value": "binds"}]}
{"binder": "B3", "values": [{"measurement": "binding result", "setting": "StXPB F278A", "value": "binds"}]}
